These results are taken from article PMC3808539 (2013).

Experiment [1] addresses T1, FMLLRRKAYV (Bacillus subtilis).
T1 chain: FMLLRRKAYV-OH
The experiment in a line: ITC. (In ITC the heat of successive injections is recorded.)

The target of experiment [2] is peptide having an Ala-Tyr-Ala C terminus. As to the kind of experiment: ITC; peptide ….
The target is the same in experiment [3]. The experiment in a line: ITC.

Substitutions are numbered along the chain they refer to. Names may count otherwise. Ends that are not written are not given here.

B1: isolated PDZ domain of CtpB (domain or fragment)
chain: SVYMDKQTAKQFSDSLDSSFEGIGAEVGMEDGKIIIVSPFKKSPAEKAGLKPNDEIISINGESMAGKDLNHAVLKIRGKKGSSVSMKIQRP
As to B1, the Kd in experiment [1] worked out at 0.9 µM; in experiment [2] it was 2.3 µM.

B2: CtpB R168F (enzyme)
chain: MADSERDKAMDKIEKAYELISNEYVEKVDREKLLEGAIQGMLSTLNDPYSVYMDKQTAKQFSDSLDSSFEGIGAEVGMEDGKIIIVSPFKKSPAEKAGLKPNDEIISINGESMAGKDLNHAVLKIFGKKGSSVSMKIQRPGTKKQLSFRIKRAEIPLETVFASEKKVQGHSVGYIAISTFSEHTAEDFAKALRELEKKEIEGLVIDVRGNPGGYLQSVEEILKHFVTKDQPYIQIAERNGDKKRYFSTLTHKKAYPVNVITDKGSASASEILAGALKEAGHYDVVGDTSFGKGTVQQAVPMGDGSNIKLTLYKWLTPNGNWIHKKGIEPTIAIKQPDYFSAGPLQLKEPLKVDMNNEDVKHAQVLLKGLSFDPGREDGYFSKDMKKAVMAFQDQNKLNKTGVIDTRTAETLNQQIEKKKSDEKNDLQLQTALKSLFVNLEHHHHHH
The molecule B2 returned a Kd in experiment [3] of 40 µM.

B3: CtpB S309A, proteolytically inactive mutant (enzyme)
chain: B2 chain with F126R, A185T, L215I, S267A, V402I
B3 came in with a Kd in experiment [2] of 6.5 µM.

B4: CtpB R168A (enzyme)
chain: B2 chain with F126A
B4 returned a Kd in experiment [3] of 21 µM.

As usually defined, the Kd is the constant that tells how readily two partners part at equilibrium.
